Source: the supplement of paper PMC10567573

B1: ZC3H15 (parent)
chain: ENLFTGEDLDELEEELNTLDLEE
B2: WEE1 (parent)
chain: FLGSSFSPVRCGGPGDASPRGCGA

Variants of: B1
Experiment: protein stability index of a GFP-peptide fusion (GPS, HEK-293T) (PSI 1-6); higher = more stable
Conditions: c terminus: native
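Note: lentivirally expressed fusions sorted by FACS into six bins by GFP to DsRed ratio, PSI derived from sequencing read proportions per bin multiplied by bin number.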

Protein stability index, by site and new letter:
L3: R 4.71 | H 4.39 | G 4.81 | Y 3.6 | P 4.65 | T 4.71 | C 3.83 | N 4.8 | I 4.57
E11: A 3.93 | R 4.98 | G 5.13 | Q 4.89 | L 4.3 | N 4.58 | P 4.06 | M 4.25 | V 4.1 | D 4.58 | W 4.67 | F 3.64 | H 4.58 | S 4.93 | C 4.52 | I 4.71 | T 4.9 | K 4.83
N2: K 3.49 | E 4.39 | R 4.94 | S 4.6 | Y 4.78 | P 4.24 | M 4.08 | W 3.12 | T 4.23 | V 4.17 | C 4.28 | H 4 | Q 4.71 | I 3.61

Variants of: B2
Experiment: as above
Conditions: c terminus: a fixed tail appended

Protein stability index of substitutions, site by site:
C22: R 2.27 | D 1.61 | S 2.73 | Y 2.1 | A 1.88 | P 1.59 | K 2.17 | H 2.94 | Q 1.73 | L 1.75 | N 1.8 | G 2.13 | V 1.73 | F 2.48 | E 1.95 | M 1.87 | I 1.58 | W 2.96 | T 2.47
G21: V 1.74 | L 1.95 | F 1.64 | E 2.06 | A 1.92 | H 1.87 | I 1.97 | P 1.91 | N 1.55 | Y 1.69 | D 1.64 | K 1.81 | W 1.38 | T 2.08 | S 1.67 | C 3.5 | R 1.96 | Q 2.17 | M 1.76
R20: L 2.37 | W 2.19 | I 1.23 | N 2 | K 1.62 | T 1.8 | D 2.17 | M 1.57 | Y 3.14 | A 2.27 | G 1.36 | P 2.14 | V 1.79 | E 2.28 | H 1.33 | Q 2.12 | S 1.55
G23: I 2.35 | T 1.7 | R 1.79 | Q 1.73 | A 2.4 | L 1.09 | M 1.63 | P 2.06 | D 2.22 | S 1.82 | N 1.66 | K 1.71 | C 2.64 | V 1.73 | F 2.37 | Y 1.4 | H 3.02 | E 1.75
S18: Q 1.96 | Y 1.65 | K 2.07 | F 1.86 | I 1.75 | M 1.62 | G 1.98 | H 1.83 | T 1.42 | V 2.09 | P 2.89 | R 1.68 | W 2.3 | L 2 | N 1.84
P19: A 2.78 | E 2.14 | I 1.57 | W 2.52 | H 1.25 | K 1.93 | T 1.88 | F 2.62 | C 1.98 | Q 1.57 | Y 1.12 | M 1.35 | S 1.8 | D 2 | G 2 | N 2.45 | L 2.31 | V 2.23 | R 2.38
A24: I 1.42 | E 1.88 | T 2.01 | M 1.02 | S 1.58 | D 2.27 | Y 1.75 | N 2.28 | H 1.52 | G 1.75 | L 1.82 | C 2.6 | V 1.6 | K 2.17 | R 1.98 | W 1.37 | F 2.42 | P 1.58 | Q 1.52
